This is an account of results in publication doi:10.1101/2021.08.08.455546.

The target in the experiment is Human GRLBD-F602S (520-778), glucocorticoid receptor ligand binding domain (human) (UniProt P04150).
Chain of UniProt P04150 (P04150 520-777 F602S): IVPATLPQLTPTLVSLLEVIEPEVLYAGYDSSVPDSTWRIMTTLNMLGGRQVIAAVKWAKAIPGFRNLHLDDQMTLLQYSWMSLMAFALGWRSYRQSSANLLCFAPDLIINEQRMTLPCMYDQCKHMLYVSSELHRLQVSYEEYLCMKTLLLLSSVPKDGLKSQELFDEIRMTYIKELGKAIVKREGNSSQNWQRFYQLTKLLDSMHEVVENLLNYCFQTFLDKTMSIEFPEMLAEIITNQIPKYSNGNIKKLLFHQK

Turning to “Human Hsp90β (from UniProt P08238 1-724) (natural protein)”, the relaxation energy of the GRLBD chain with hHsp90 in absence of ATP was determined as 42 KBT.
